Target: the molecule itself
Assay: SDS-PAGE in the absence of reductant

B1: platelet thrombospondin (natural protein)
chain: not shown
modifications: iodinated (residues not stated)
- stoichiometry N: 3

From paper PMC2115704 (The Journal of Cell Biology, 1989)
